The values that follow are results of earlier work, collected in PMC6557900.

In this data set the target is GHR pY487 pY487 region (Homo sapiens) (UniProt P10912).

pKd: −log10 of the molar value.

SOCS2, sequence (O14508 whole entry): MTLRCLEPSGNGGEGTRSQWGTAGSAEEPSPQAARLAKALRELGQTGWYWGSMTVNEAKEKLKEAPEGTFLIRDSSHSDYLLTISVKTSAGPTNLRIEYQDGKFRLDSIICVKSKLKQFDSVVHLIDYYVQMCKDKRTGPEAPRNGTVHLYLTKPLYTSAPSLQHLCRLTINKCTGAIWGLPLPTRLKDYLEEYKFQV
GHR pY487 pY487 region (Homo sapiens), sequence (P10912 whole entry, looked up): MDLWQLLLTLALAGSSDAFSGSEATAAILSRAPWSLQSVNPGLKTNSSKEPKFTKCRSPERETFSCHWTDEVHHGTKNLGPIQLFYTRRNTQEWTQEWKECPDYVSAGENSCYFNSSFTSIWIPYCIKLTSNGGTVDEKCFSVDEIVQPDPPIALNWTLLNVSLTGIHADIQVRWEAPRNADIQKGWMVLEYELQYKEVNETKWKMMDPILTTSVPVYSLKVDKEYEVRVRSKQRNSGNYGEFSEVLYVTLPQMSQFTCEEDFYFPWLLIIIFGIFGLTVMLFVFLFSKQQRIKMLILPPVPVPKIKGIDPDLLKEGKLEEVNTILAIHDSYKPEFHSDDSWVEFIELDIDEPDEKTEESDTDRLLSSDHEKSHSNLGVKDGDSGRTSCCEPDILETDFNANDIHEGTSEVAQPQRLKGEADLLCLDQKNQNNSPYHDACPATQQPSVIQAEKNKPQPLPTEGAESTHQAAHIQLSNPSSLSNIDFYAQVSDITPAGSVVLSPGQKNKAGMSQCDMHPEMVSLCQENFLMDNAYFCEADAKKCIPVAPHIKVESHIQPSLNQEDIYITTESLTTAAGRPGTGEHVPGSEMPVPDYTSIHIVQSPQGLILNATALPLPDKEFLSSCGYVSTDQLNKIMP

For SOCS2 (from UniProt O14508), the pKd (commonly the Kd on a negative log10 scale, so that one unit is a factor of ten) is 4.95.
